Laboratory results taken from PMC9130890 (2022).

Target: autologous SHIV_(1157ipd3N4) gp120 monomer (SHIV_(1157ipd3N4))
Test: BLI

B1: unmutated common ancestor (UCA) of the J038 lineage (antibody, V domains shown)
VH: QLQLQESGPGLVKPSETLSLTCAVSGGSISSNYWSWIRQPPGKGLEWIGRISGSGGSTDYNPSLKSRVTISTDTSKNQFSLKLSSVTAADTAVYYCAREVAEDDYGYYQPYFDYWGQGVLVTVSS
VL: DIQMTQSPSSLSASVGDRVTITCRASQGISSYLAWYQQKPGKAPKLLIYAASSLQSGVPSRFSGSGSGTDFTLTISSLQPEDFATYYCQQYNSLPLTFGGGTKVEIK
Kd: 37.8 nM | koff: 0.0023 s⁻¹
